We go through 5 compounds from patent publication US11285284B2, “Methods for treatment of pulmonary lung diseases with improved therapeutic efficacy and improved dose efficiency” (PNEUMA RESPIRATORY, INC., priority 2016, dated 2022).

Data set [1] has as its system patients with cystic fibrosis. The conditions noted are these: cited from earlier work.
The nature of data set [2]: Enbrel stability after aerosol generation, size exclusion chromatography. It is filed as physicochemical. The conditions noted are these: for Peak Area %, Peak 1 / Peak Area %, Peak 2 / Peak Area %, Peak 4 / Peak Area %, Peak 5: SEC UV 280 nm. The text has this:
Alternately, to determine the stability of active agent after droplet generation, the generated stream of droplets including the active agent may be collected and […] may be employed to monitor for any changes in large molecule aggregation and protein fragment content. Soluble protein aggregates and protein fragment content may be calculated by comparing respective peak area under the SEC-HPLC curve of dispensed protein solutions with controls (solutions remaining in the device reservoir). Drug solutions for testing include Enbrel, (ENBREL® single-use prefilled syringes in 25 mg (0.51 mL of a 50 mg/mL solution of etanercept), and insulin, (Humalog, 200 units/ml, 3 ml […] is performed with a YarraTM 3 um SEC-2000 LC column 300×7.8 mm, SecurityGuard cartridge kit and SecurityGuard cartridges GFC-2000, 4×3 mm ID. Fifty microliters of Enbrel from the syringe (ENBREL® single-use prefilled syringes in 25 mg/0.51 mL of a 50 mg/mL solution of etanercept) is diluted (4:1) (4 parts, 200 mcl of the mobile phase buffer solution to 1 part, 50 mcl Enbrel from syringe). Fifty microliter of the diluted Enbrel is injected and separation was performed at a flow rate of 1.0 ml/min. The mobile phase buffer system included a PHOS. BUFF. SALINE. […] UV detection is performed at 280 nm. […] An ampule/cartridge is filled with either 0.20 ml of Enbrel® (50 mg/ml) diluted 4:1 (10 mg/ml)(4 parts (200 mcl) of PBS and 0.025% NaN3 and 1 part (50 mcl of Enbrel solution from the syringe). After 20 actuations and aerosolization, about 150 mcl of the aerosolized Enbrel solution is recovered and collected in the polypropylene tube located below the ejector mechanism. The control consists of the diluted Enbrel solution, 50 mcl of which is injected into the SEC column for analysis.

A short description of data set [3]: Gravimetric analysis of delivered dose per actuation. It is filed as physicochemical. Conditions: for total delivered dose per actuation: from gravimetric mass and solution concentration; for average mass ejected per dose (actuation), gravimetric: solution filled ampule weighed before and after dosing, average of five doses. Here is the method:
Gravimetric analysis was performed by weighing the Enbrel solution filled ampule before and after dosing. The average of five doses (actuations) were analyzed with an average of 4.25 mg+/−0.15 mg. The total delivered dose of Enbrel per actuation is therefore […] per actuation.
Gravimetric analysis was performed by weighing the Insulin solution filled ampule before and after dosing. The average of five doses (actuations) were analyzed with an average of 5.01 mg+/−0.53 mg. The total delivered dose of Insulin per actuation is therefore 34.8 mcg per actuation.

Data set [4] can be described thus: Gel electrophoresis of active agent after droplet generation. It counts as physicochemical. The text has this:
Gel Electrophoresis: To determine the stability of active agent after droplet generation, the generated stream of droplets including the active agent is collected and the molecular weight of the active agent is verified using gel electrophoresis.

The nature of data set [5]: Insulin stability after aerosol generation, size exclusion chromatography. It is filed as physicochemical. The text has this: Alternately, to determine the stability of active agent after droplet generation, the generated stream of droplets including the active agent may be collected and SEC-HPLIC may be employed to monitor for any changes in large molecule aggregation and protein fragment content. Soluble protein aggregates and protein fragment content may be calculated by comparing respective peak area under the SEC-HPLC curve of dispensed protein solutions with controls (solutions remaining in the device reservoir).
Drug solutions for testing include Enbrel, (ENBREL® single-use prefilled syringes in 25 mg (0.51 mL of a 50 mg/mL solution of etanercept), and insulin, (Humalog, 200 units/ml, 3 ml kwikpens)
To calculate and compare effects of droplet generation through an ejector mechanism of the disclosure, the total area under the curve of the UV signal at 280 nm versus elution time for controls is compared with the aerosolized samples, which is set to 100%.
Aerosol collection and SEC is performed in a similar fashion as for the Enbrel analysis and aerosol collection.
Fifty microliters of the collected aerosol spray is injected onto the SEC column for analysis, while 50 mcl of the Kwikpen insulin solution is injected onto the SEC column for control samples.

[6] abbreviates: average of aerosolized S1 and S2.
Setting [7] is: control, Enbrel diluted 4:1 (10 mg/ml), not aerosolized.

Values joined by “and” are separate entries in the source; they are usually repeats but may differ in a detail not shown here. Equal entries are not always repeated.

Turning to `NC[C@H]1O[C@H](O[C@H]2[C@H](O)[C@@H](O[C@H]3O[C@H](CO)[C@@H](O)[C@H](N)[C@H]3O)[C@H](N)C[C@@H]2N)[C@H](N)C[C@@H]1O` [tobramycin], the “effect on pulmonary function and kidney side effects” value in data set [1] (administration by inhalation) is reported as “significantly improves pulmonary function without severe side effects to kidney functions”. Moreover, the “toxicity of serum levels” value in data set [1] (intravenous administration) was “toxic to the kidneys”.
For Enbrel, the “Peak Area %, Peak 1” value was 2.796% and 3.476% in data set [2] (aerosolized with test device, 20 actuations, ret time about 5.3 min); 2.428% and 3.041% in data set [2] (control, Enbrel diluted 4:1 (10 mg/ml), not aerosolized, ret time 4.3-5.3 min). The “Peak Area %, Peak 2” value in data set [2] (aerosolized with test device, 20 actuations, ret time about 5.8 min) is 90.789% and 92.112%; in data set [2] (control, Enbrel diluted 4:1 (10 mg/ml), not aerosolized, ret time 4.8-5.8 min) it was 96.676% and 95.909%. The “Peak Area %, Peak 4” value in data set [2] (aerosolized with test device, 20 actuations, ret time about 13 min) was 0.357% and 0.352%; in data set [2] (setting [7]) it was 0%. Further, the “Peak Area %, Peak 5” value in data set [2] (aerosolized with test device, 20 actuations, ret time about 25 min) is 5.130% and 3.428% and 5.123%; in data set [2] (setting [7]), 0%. In addition, the “Peak Area %, Peak 4, Avg.” value in data set [2] (setting [6]) stood at 0.3545. In data set [2] (setting [6]), the “Peak Area %, Peak 5, Avg.” value came to 4.2755. The “fraction of the dose forming molecular fragments” value in data set [2] (fragments with elution times of 13 and 25 minutes) stood at 4.6%. In addition, the “fraction structurally unchanged after delivering an aerosol dose” value in data set [2] (test device, SEC) turned out to be 95.4%. Further, the “total delivered dose per actuation” value in data set [3] came to 42.5 µg. In addition, in data set [3], the “average mass ejected per dose (actuation), gravimetric” value is on record as 4.25 mg. For the same compound, in data set [4], the “change in electrophoretic mobility (molecular weight) of post-aerosol active agent versus control” value (“change in electrophoretic mobility” below) was “negligible change”.
Turning to “Insulin: insulin, Humalog, 200 units/ml, 3 ml kwikpens”, in data set [5] (setting [6]), the “Peak Area %, Peak 3, Avg.” value is reported as 2.4905. For the same compound, the “Peak Area %, Peak 3” value in data set [5] (control, Kwikpen insulin solution 200 U/ml, not aerosolized) is 0%. Further, the “fraction of the ejected dose forming a fragment” value in data set [5] (fragment eluting at ~25 minutes) is listed as 2.5%. The “fraction of the ejected dose structurally unchanged” value in data set [5] (test device, SEC) is listed as 97.5%. Further, in data set [3], the “total delivered dose per actuation” value was 34.8 µg and the “average mass ejected per dose (actuation), gravimetric” value was determined as 5.01 mg.
In the case of adalimumab, in data set [4], the “change in electrophoretic mobility” value is “negligible change”.
As to bevacizumab: antibody (Avastin), in data set [4], the “change in electrophoretic mobility” value was “negligible change”.
